Paper PMC2873289, “A Helix Replacement Mechanism Directs Metavinculin Functions” (PLoS ONE, 2010)

Assays:
[1] = biological target: the molecule itself; assay: SEC; Hiload 26/60 Superdex 200 calibrated with molecular weight markers; without PIP2
[2] = biological target: T1, GST tagged vinculin tail domain (GST-Vt; residues 879–1,066) (human, UniProt P18206-2 879-1066); assay: pull-down; GST-Vt on GST-Sepharose beads, with or without PIP2; tail domains (MVt, MVt-ΔH1) or Vh2–Vh3 as negative control; SDS-PAGE and Western blot with HRP-conjugated αHis or αGST antibodies; conditions: both partners purified
T1 construct: human vinculin tail domain, residues 879-1,066 of vinculin (1,066-residue isoform), cloned in pGEX-4T-1; source: E. coli BL21-DE3, purified (GSTrap FF, Superdex 75)
T1 sequence (looked up): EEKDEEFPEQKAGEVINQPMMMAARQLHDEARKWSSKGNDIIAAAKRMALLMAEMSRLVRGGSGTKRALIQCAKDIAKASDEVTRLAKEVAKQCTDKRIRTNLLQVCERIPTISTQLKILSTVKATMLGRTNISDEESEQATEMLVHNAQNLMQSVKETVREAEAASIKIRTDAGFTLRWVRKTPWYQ

[3] = biological target: T2, head domain of vinculin (VH; residues 1–843) (human, UniProt P18206 1-843); assay: native gel or EMSA; reciprocal tail displacement: competing tail domains titrated into preformed VH:tail complexes at 2- and 10-fold molar excess; details in Methods S1; conditions: both partners purified
T2 construct: human vinculin head domain, residues 1-843 (the same in vinculin and metavinculin)
T2 sequence (looked up): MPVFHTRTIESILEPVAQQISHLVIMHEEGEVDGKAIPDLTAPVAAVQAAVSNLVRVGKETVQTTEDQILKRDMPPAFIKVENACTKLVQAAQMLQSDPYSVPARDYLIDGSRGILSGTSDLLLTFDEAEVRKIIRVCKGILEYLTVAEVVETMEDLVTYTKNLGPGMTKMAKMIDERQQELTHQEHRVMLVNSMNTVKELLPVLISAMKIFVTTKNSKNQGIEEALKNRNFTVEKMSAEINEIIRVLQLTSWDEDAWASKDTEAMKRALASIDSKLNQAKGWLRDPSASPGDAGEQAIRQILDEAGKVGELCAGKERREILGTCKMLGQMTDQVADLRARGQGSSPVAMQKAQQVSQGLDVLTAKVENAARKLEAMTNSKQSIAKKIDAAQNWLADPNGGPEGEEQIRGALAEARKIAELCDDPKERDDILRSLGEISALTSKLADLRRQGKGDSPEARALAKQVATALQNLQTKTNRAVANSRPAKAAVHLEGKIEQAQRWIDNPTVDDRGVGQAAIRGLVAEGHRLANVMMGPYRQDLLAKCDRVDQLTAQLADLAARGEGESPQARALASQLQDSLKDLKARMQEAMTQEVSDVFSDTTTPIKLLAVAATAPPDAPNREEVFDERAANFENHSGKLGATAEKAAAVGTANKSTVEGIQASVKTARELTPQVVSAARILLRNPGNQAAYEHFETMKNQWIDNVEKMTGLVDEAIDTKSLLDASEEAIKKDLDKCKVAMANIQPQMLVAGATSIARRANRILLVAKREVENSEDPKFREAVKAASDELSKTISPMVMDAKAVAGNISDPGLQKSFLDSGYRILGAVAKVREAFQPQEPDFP

Row | Binder | stoichiometry N [1] | binding result [3] | further results
1 | metavinculin-ΔH1ΔH1′ (lacking residues 895–915 and 963–983) (natural protein, human, UniProt P18206 1-1134, looked up, human metavinculin, full length (1-1,134) lacking residues 895-915 (H1) and 963-983 (H1′); source: E. coli BL21-DE3, purified (as full-length metavinculin); not shown: His8, N-terminal, kept) MPVFHTRTIESILEPVAQQISHLVIMHEEGEVDGKAIPDLTAPVAAVQAAVSNLVRVGKETVQTTEDQILKRDMPPAFIKVENACTKLVQAAQMLQSDPYSVPARDYLIDGSRGILSGTSDLLLTFDEAEVRKIIRVCKGILEYLTVAEVVETMEDLVTYTKNLGPGMTKMAKMIDERQQELTHQEHRVMLVNSMNTVKELLPVLISAMKIFVTTKNSKNQGIEEALKNRNFTVEKMSAEINEIIRVLQLTSWDEDAWASKDTEAMKRALASIDSKLNQAKGWLRDPSASPGDAGEQAIRQILDEAGKVGELCAGKERREILGTCKMLGQMTDQVADLRARGQGSSPVAMQKAQQVSQGLDVLTAKVENAARKLEAMTNSKQSIAKKIDAAQNWLADPNGGPEGEEQIRGALAEARKIAELCDDPKERDDILRSLGEISALTSKLADLRRQGKGDSPEARALAKQVATALQNLQTKTNRAVANSRPAKAAVHLEGKIEQAQRWIDNPTVDDRGVGQAAIRGLVAEGHRLANVMMGPYRQDLLAKCDRVDQLTAQLADLAARGEGESPQARALASQLQDSLKDLKARMQEAMTQEVSDVFSDTTTPIKLLAVAATAPPDAPNREEVFDERAANFENHSGKLGATAEKAAAVGTANKSTVEGIQASVKTARELTPQVVSAARILLRNPGNQAAYEHFETMKNQWIDNVEKMTGLVDEAIDTKSLLDASEEAIKKDLDKCKVAMANIQPQMLVAGATSIARRANRILLVAKREVENSEDPKFREAVKAASDELSKTISPMVMDAKAVAGNISDPGLQKSFLDSGYRILGAVAKVREAFQPQEPDFPPPPPDLEQLRLTDELAPPKPPLPEGEVPPPRPPPPEEKDEEFPEQKAGEVIPGIPAAEVGIGVVAEADAADAAGFPVPPDMEDDYEPELLLMPSNQPVGNDIIAAAKRMALLMAEMSRLVRGGSGTKRALIQCAKDIAKASDEVTRLAKEVAKQCTDKRIRTNLLQVCERIPTISTQLKILSTVKATMLGRTNISDEESEQATEMLVHNAQNLMQSVKETVREAEAASIKIRTDAGFTLRWVRKTPWYQ | 2 | – | –
2 | metavinculin-ΔH1′ (lacking residues 963–983) (natural protein, human, UniProt P18206 1-1134, looked up, human metavinculin, full length (1-1,134) lacking residues 963-983 (α-helix H1′): 1-962 joined to 984-1,134; also called MV-ΔH1′; source: E. coli BL21-DE3, purified (as full-length metavinculin); not shown: His8, N-terminal, kept) MPVFHTRTIESILEPVAQQISHLVIMHEEGEVDGKAIPDLTAPVAAVQAAVSNLVRVGKETVQTTEDQILKRDMPPAFIKVENACTKLVQAAQMLQSDPYSVPARDYLIDGSRGILSGTSDLLLTFDEAEVRKIIRVCKGILEYLTVAEVVETMEDLVTYTKNLGPGMTKMAKMIDERQQELTHQEHRVMLVNSMNTVKELLPVLISAMKIFVTTKNSKNQGIEEALKNRNFTVEKMSAEINEIIRVLQLTSWDEDAWASKDTEAMKRALASIDSKLNQAKGWLRDPSASPGDAGEQAIRQILDEAGKVGELCAGKERREILGTCKMLGQMTDQVADLRARGQGSSPVAMQKAQQVSQGLDVLTAKVENAARKLEAMTNSKQSIAKKIDAAQNWLADPNGGPEGEEQIRGALAEARKIAELCDDPKERDDILRSLGEISALTSKLADLRRQGKGDSPEARALAKQVATALQNLQTKTNRAVANSRPAKAAVHLEGKIEQAQRWIDNPTVDDRGVGQAAIRGLVAEGHRLANVMMGPYRQDLLAKCDRVDQLTAQLADLAARGEGESPQARALASQLQDSLKDLKARMQEAMTQEVSDVFSDTTTPIKLLAVAATAPPDAPNREEVFDERAANFENHSGKLGATAEKAAAVGTANKSTVEGIQASVKTARELTPQVVSAARILLRNPGNQAAYEHFETMKNQWIDNVEKMTGLVDEAIDTKSLLDASEEAIKKDLDKCKVAMANIQPQMLVAGATSIARRANRILLVAKREVENSEDPKFREAVKAASDELSKTISPMVMDAKAVAGNISDPGLQKSFLDSGYRILGAVAKVREAFQPQEPDFPPPPPDLEQLRLTDELAPPKPPLPEGEVPPPRPPPPEEKDEEFPEQKAGEVINQPMMMAARQLHDEARKWSSKPGIPAAEVGIGVVAEADAADAAGFPVPPDMEDDYEPELLLMPSNQPVGNDIIAAAKRMALLMAEMSRLVRGGSGTKRALIQCAKDIAKASDEVTRLAKEVAKQCTDKRIRTNLLQVCERIPTISTQLKILSTVKATMLGRTNISDEESEQATEMLVHNAQNLMQSVKETVREAEAASIKIRTDAGFTLRWVRKTPWYQ | 2 | – | –
3 | MVt-ΔH1 (residues 959–1,130) as detected by His-tag Western blot in the GST-Vt pull-down (domain or fragment, human, UniProt P18206 959-1130, looked up, human metavinculin (1,134 residues), residues 959-1,130; Same construct as m3; source: E. coli, auto-induction media, purified; not shown: His8, N-terminal, kept) NQPVNQPILAAAQSLHREATKWSSKGNDIIAAAKRMALLMAEMSRLVRGGSGTKRALIQCAKDIAKASDEVTRLAKEVAKQCTDKRIRTNLLQVCERIPTISTQLKILSTVKATMLGRTNISDEESEQATEMLVHNAQNLMQSVKETVREAEAASIKIRTDAGFTLRWVRKT | – | – | binding result [2]: binds
4 | MVt-ΔH1 (residues 959–1,130) (domain or fragment, human, UniProt P18206 959-1130, looked up, human metavinculin (1,134 residues), residues 959-1,130 (five-helix bundle H1′, H2-H5); The His-detected form of the pull-down is m17; also called MVt five-helix bundle (α-helices H1′, H2–H5); not shown: His8, N-terminal, cleaved) NQPVNQPILAAAQSLHREATKWSSKGNDIIAAAKRMALLMAEMSRLVRGGSGTKRALIQCAKDIAKASDEVTRLAKEVAKQCTDKRIRTNLLQVCERIPTISTQLKILSTVKATMLGRTNISDEESEQATEMLVHNAQNLMQSVKETVREAEAASIKIRTDAGFTLRWVRKT | – | binds | –
5 | metavinculin tail domain (MVt; residues 879–1,134) (domain or fragment, human, UniProt P18206 879-1134, looked up, human metavinculin (1,134 residues) tail domain, residues 879-1,134; Tag-cleaved form as told in the purification methods; the His-detected form of the pull-down is m16; not shown: His6, N-terminal, cleaved) EEKDEEFPEQKAGEVINQPMMMAARQLHDEARKWSSKPGIPAAEVGIGVVAEADAADAAGFPVPPDMEDDYEPELLLMPSNQPVNQPILAAAQSLHREATKWSSKGNDIIAAAKRMALLMAEMSRLVRGGSGTKRALIQCAKDIAKASDEVTRLAKEVAKQCTDKRIRTNLLQVCERIPTISTQLKILSTVKATMLGRTNISDEESEQATEMLVHNAQNLMQSVKETVREAEAASIKIRTDAGFTLRWVRKTPWYQ | – | binds | –
6 | MVt-R975W (residues 879–1134) (domain or fragment, human, UniProt P18206 879-1134, looked up, human metavinculin tail domain, residues 879-1,134, with the cardiomyopathy-associated mutation Arg975Trp; also called MVt-Arg975Trp; not shown: His6, N-terminal, cleaved) EEKDEEFPEQKAGEVINQPMMMAARQLHDEARKWSSKPGIPAAEVGIGVVAEADAADAAGFPVPPDMEDDYEPELLLMPSNQPVNQPILAAAQSLHWEATKWSSKGNDIIAAAKRMALLMAEMSRLVRGGSGTKRALIQCAKDIAKASDEVTRLAKEVAKQCTDKRIRTNLLQVCERIPTISTQLKILSTVKATMLGRTNISDEESEQATEMLVHNAQNLMQSVKETVREAEAASIKIRTDAGFTLRWVRKTPWYQ | – | binds | –
